Measurements taken from patent US20240226319A1, “EGFR TARGETING FC ANTIGEN BINDING FRAGMENT-DRUG CONJUGATES” (MERCK PATENT GMBH, priority 2021, published 2024).

Legend:
[1] = Thermal unfolding by nanoDSF; assay type: physicochemical; settings: PBS pH 6.8, 20 to 95° C. at 1° C./min
Description: FIG. 10 Thermal stability of Fcabs and huFc control molecule. The first derivative of thermal unfolding curves (A) as well as the unfolding transition midpoints (Tm) (B) are shown. To determine thermal unfolding, Fcabs and huFc (PBS pH 6.8) were loaded into nanoDSF grade standard capillaries which were then transferred into a Prometheus NT.PLEX nanoDSF (NanoTemper Technologies) instrument. Samples were subjected to a linear thermal ramp from 20° C. to 95° C. at a slope of 1° C./min with simultaneous recording of fluorescence at 350 and 330 nm. Unfolding transition midpoints (Tm) were determined from the first derivative of the fluorescence ratio 350 nm/330 nm. All samples were measured in duplicates. n.d.—not detected
As a negative control, we included an unmodified human Fc (huFc) fragment. As EGFR-binding references, a Cetuximab-based full length IgG (C-IgG) and a Cetuximab-derived Fab (C-Fab) fragment, both equipped with a sortase A (SrtA) recognition motif (LPETG) at the C-terminal end of the light chain, were included. […] Moreover, we evaluated functional and selective cellular binding of the purified constructs (FIG. 11, FIG. 12). […] To ensure comparability between individual fluorescence intensities resulting from differently labeled constructs, the fluorescence signals were normalized. […]

[2] = test system: EGFR positive (MDA MB 468 and A431) and EGFR negative (MCF 7) cells; experiment: Cellular binding analysis by flow cytometry; assay type: cell-based, human; settings: 100 nM, 60 min at 4° C., AF488-labeled detection antibody

huFc: Modified human IgG1 Fc fragment (D265A), negative control, SEQ ID No. 7
unfolding transition midpoint Tm,1 [1]: 66 °C | cellular binding [2]: do not show any binding
